Assay results as given in patent US12612465B2, “Formulations comprising PCSK9 specific monoclonal antibodies” (Amgen Inc., priority 2012, dated 2026).

Key:
[1] = Viscosity measurement of 11F1 formulations; assay type: physicochemical; conditions: 10 mM sodium acetate
Description: Concentration determination was then carried out by measuring absorbance at A280 using an Agilent 8453 Spectrophotometer (Santa Clara, Calif.). Protein concentration was calculated using the appropriate extinction coefficient. The appropriate amount of buffer was then added to the sample to dilute it back down to the desired concentration and another A280 was performed to obtain the final concentration for the experiment. Excipients were added individually to the 11F1 formulations samples derived from the high concentration stock solutions.
Viscosity was measured using Brookfield LV-DVII cone and plate viscometer (Middleboro, Mass.) with a CPE-40 spindle with matching sample cup temperature regulated by a circulating water bath at constant 25° C. 500 μL of sample was added to sample cup with positive displacement pipettor. […] At this point the rotational speed was stopped and a viscosity reading was generated by Rheocalc software.
High concentration protein formulations were sometimes measured using a different type of viscometer, an Anton Paar Physica Model MCR300 with a CP50-1 spindle. A 600 uL sample is used in this instrument and Rheoplus software version 3.4 was use to calculate solution viscosity. There was not a large difference in measurements using either viscometer.

furin = target: T1, furin (Homo sapiens, UniProt P09958); assay: 11F1 binding specificity competition assay; conditions: 0.4 μg/mL 11F1, 0 to 20 μg/mL competitor, furin inhibitor 4.5 μg/mL
T1 construct: purchased R&D Systems
Description: (§1) Biotinylated PCSK9, diluted in buffer A (25 mM Tris, 150 mM NaCl, 0.1% BSA, 0.05% tween, pH 7.5) was bound to neutravidin coated 96 well plates at a concentration of 0.2 μg/mL, for one hour incubation at room temperature. Separately, 0.4 μg/mL of 11F1 was incubated for one hour at room temperature with various concentrations (ranging from 0 to 20 μg/mL) of either PCSK1, PCSK2, PCSK7, PCSK9 or furin (R&D Systems, Minneapolis, Minn.) (diluted in buffer A w/o tween). Furin inhibitor, at 4.5 μg/mL, was included with all furin containing reactions. The PCSK9 coated streptavidin plate was washed with buffer A and the antibody/proprotein convertase mixture was added to the plate and incubated at room temperature for one hour. After washing, bound antibody was detected by incubation with goat-α-human Fc-HRP (160 ng/mL, diluted in buffer A) (Jackson Laboratories, Bar Harbor, Me.) followed by TMB substrate. The reaction was stopped with 1 N HCl and the absorbance was read at a wavelength of 450 nm on a Spectramax Plus 384 spectrophotometer (Molecular Devices Inc., Sunnyvale, Calif.).
(§2) This assay relied on the ability of proprotein convertase in solution to compete for the binding of 11F1 to plate-captured PCSK9. […] All results were expressed as the mean OD450 value±standard deviation versus concentration of the proprotein convertase. […] Therefore, at the protein concentrations studied, 11F1 binds only to PCSK9 and not to the other proprotein convertase family members tested.

PCSK9 = PCSK9 (Homo sapiens, UniProt Q8NBP7); assay: 11F1 binding specificity competition assay; conditions: 0.4 μg/mL 11F1, 0 to 20 μg/mL competitor
Description: as §1, §2

PCSK7 = target: T2, PCSK7 (Homo sapiens, UniProt Q16549); assay: 11F1 binding specificity competition assay; conditions: 0.4 μg/mL 11F1, 0 to 20 μg/mL competitor
T2 construct: purchased R&D Systems
T2 sequence (Q16549 142-785): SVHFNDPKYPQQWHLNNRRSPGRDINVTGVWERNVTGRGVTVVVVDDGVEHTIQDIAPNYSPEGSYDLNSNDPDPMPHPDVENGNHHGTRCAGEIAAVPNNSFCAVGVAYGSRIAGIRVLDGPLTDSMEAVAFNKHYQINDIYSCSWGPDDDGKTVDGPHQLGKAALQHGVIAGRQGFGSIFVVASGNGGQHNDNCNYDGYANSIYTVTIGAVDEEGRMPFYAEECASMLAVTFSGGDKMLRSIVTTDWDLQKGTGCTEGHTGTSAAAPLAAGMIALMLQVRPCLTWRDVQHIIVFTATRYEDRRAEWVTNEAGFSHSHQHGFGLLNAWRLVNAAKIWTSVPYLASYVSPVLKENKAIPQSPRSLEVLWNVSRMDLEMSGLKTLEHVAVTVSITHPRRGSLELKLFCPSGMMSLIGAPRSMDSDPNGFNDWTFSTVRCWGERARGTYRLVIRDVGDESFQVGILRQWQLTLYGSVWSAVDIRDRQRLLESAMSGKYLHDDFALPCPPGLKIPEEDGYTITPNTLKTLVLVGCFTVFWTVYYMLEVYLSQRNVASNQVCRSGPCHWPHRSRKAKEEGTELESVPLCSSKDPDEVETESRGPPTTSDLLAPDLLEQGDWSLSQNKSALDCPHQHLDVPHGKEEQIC
Description: as §1, §2

PCSK2 = target: T3, PCSK2 (Homo sapiens, UniProt P16519); assay: 11F1 binding specificity competition assay; conditions: 0.4 μg/mL 11F1, 0 to 20 μg/mL competitor
T3 construct: purchased R&D Systems
T3 sequence (P16519 110-638): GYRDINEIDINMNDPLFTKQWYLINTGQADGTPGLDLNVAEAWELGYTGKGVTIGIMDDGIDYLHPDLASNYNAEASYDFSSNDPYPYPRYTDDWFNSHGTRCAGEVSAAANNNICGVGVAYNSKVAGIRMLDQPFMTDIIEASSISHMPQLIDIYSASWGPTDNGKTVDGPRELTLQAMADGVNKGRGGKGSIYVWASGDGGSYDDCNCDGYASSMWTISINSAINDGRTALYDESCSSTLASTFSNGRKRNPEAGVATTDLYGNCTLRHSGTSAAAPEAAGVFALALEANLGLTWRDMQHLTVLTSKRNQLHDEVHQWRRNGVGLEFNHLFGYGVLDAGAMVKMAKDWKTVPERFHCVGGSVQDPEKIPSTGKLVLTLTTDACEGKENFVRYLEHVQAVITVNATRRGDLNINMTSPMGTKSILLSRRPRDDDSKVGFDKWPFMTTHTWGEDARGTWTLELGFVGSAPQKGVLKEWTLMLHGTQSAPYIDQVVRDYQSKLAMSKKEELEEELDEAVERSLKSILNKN
Description: as §1, §2

Sequence of PCSK9 (Q8NBP7 153-692): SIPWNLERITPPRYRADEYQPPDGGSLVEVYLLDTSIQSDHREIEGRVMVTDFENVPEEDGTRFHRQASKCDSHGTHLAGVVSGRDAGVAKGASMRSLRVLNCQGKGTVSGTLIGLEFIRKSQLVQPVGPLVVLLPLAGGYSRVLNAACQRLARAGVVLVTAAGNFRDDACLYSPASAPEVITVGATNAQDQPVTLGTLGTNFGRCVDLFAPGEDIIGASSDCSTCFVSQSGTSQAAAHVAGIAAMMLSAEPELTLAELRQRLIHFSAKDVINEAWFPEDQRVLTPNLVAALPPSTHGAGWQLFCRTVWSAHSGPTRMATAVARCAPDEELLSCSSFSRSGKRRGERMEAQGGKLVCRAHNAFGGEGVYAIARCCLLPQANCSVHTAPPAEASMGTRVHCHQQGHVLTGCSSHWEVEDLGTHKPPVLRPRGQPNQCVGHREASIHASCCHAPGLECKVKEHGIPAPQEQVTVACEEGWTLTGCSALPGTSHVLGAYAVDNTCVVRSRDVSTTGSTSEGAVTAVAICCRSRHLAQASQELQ
T1 sequence (P09958 108-794, species assumed): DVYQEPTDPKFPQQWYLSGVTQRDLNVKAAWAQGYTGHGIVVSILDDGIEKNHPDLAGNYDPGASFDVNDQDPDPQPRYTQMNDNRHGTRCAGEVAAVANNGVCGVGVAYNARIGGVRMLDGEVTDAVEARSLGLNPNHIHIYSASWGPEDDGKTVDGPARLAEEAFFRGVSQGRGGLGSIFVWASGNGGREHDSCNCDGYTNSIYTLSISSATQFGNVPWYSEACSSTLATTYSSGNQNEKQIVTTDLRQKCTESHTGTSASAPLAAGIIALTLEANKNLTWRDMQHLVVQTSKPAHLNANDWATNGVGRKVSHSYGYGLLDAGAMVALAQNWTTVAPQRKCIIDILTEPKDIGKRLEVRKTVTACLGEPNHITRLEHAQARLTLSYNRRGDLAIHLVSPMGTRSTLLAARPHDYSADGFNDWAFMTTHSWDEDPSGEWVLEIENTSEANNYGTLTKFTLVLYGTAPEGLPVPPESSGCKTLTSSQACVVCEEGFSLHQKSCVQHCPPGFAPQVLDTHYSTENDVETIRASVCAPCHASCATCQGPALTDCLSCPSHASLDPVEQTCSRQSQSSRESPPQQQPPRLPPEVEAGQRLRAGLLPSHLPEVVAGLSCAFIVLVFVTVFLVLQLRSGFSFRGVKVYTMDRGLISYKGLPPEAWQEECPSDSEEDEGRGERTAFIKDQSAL

Substance: 11F1: anti-PCSK9 ABP, light/heavy variable region SEQ ID NO 465/463 [Antibody 11F1]
- Viscosity @ 25 C. ([1]; 145 mg/mL, 9% Sucrose 0.01% PS 20, pH 5.2): 14 cP
- Viscosity @ 25 C. ([1]; 147 mg/mL, 150 mM Methionine, 3% Sucrose, 0.01% PS 20, pH 5.2): 13 cP
- Viscosity @ 25 C. ([1]; 170 mg/mL, 250 mM Praline, 0.01% PS 20, pH 5.0): 18 cP
- Viscosity @ 25 C. ([1]; 172 mg/mL, 9% Sucrose 0.01% PS 20, pH 5.2): 23 cP
- Viscosity @ 25 C. ([1]; 186 mg/mL, 9% Sucrose 0.01% PS 20, pH 5.2): 45 cP
- Viscosity @ 25 C. ([1]; 191 mg/mL, 9% Sucrose 0.01% PS 20, pH 5.2): 53 cP
- Viscosity @ 25 C. ([1]; 192 mg/mL, 150 mM Methionine, 3% Sucrose, 0.01% PS 20, pH 5.2): 31 cP
- Viscosity @ 25 C. ([1]; 196 mg/mL, 250 mM Praline, 0.01% PS 20, pH 5.0): 36 cP
- Viscosity @ 25 C. ([1]; 211 mg/mL, 9% Sucrose, 100 mM Arginine, pH 5.2): 26 cP
- Viscosity @ 25 C. ([1]; 211 mg/mL, 9% Sucrose, 150 mM Alanine, pH 5.2): 43 cP
- Viscosity @ 25 C. ([1]; 211 mg/mL, 9% Sucrose, 150 mM Glycine, pH 5.2): 45 cP
- Viscosity @ 25 C. ([1]; 211 mg/mL, 9% Sucrose, 150 mM Serine, pH 5.2): 48 cP
- Viscosity @ 25 C. ([1]; 211 mg/mL, 9% Sucrose, 150 mM sodium chloride, pH 5.2): 62 cP
- Viscosity @ 25 C. ([1]; 211 mg/mL, 9% Sucrose, pH 5.2): 73 cP
- Viscosity @ 25 C. ([1]; 211 mg/mL, pH 5.2): 58 cP
- Viscosity @ 25 C. ([1]; 212 mg/mL, 150 mM Methionine, 3% Sucrose, 0.01% PS 20, pH 5.2): 54 cP
- Viscosity @ 25 C. ([1]; 212 mg/mL, 250 mM Praline, 0.01% PS 20, pH 5.0): 47 cP
- Viscosity @ 25 C. ([1]; 224 mg/mL, 9% Sucrose 0.01% PS 20, pH 5.2): 133 cP
- Viscosity @ 25 C. ([1]; […], 150 mM Methionine, 3% Sucrose, 0.01% PS 20, pH 5.2): 18 cP
- Viscosity @ 25 C. ([1]; […], 9% Sucrose 0.01% PS 20, pH 5.2): 8 cP
- effect of pre-incubation with furin in solution on 11F1 binding to plate-captured PCSK9 (furin): did not significantly impact the binding
- effect of pre-incubation with PCSK9 in solution on 11F1 binding to plate-captured PCSK9 (PCSK9): dose dependently and robustly reduced
- effect of pre-incubation with PCSK7 in solution on 11F1 binding to plate-captured PCSK9 (PCSK7): did not significantly impact the binding
- effect of pre-incubation with PCSK2 in solution on 11F1 binding to plate-captured PCSK9 (PCSK2): did not significantly impact the binding
